Reference: patent US20240182556A1 (OPSIDIO, published 2024)
Where a chain is given by its changes, count along the chain named. In names and notes the source's numbering stands.

T1: PE9413, C-terminal biotinylated peptide mapping on Exon6 of the SCF molecule (SCF248) (C-terminal biotin)
T1 construct: also called C-terminal biotinylated PE9413; C-ter PE9413
T1 peptide: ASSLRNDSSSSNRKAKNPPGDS

T2: N-terminal biotinylated PE9413 (not fully specified; N-terminal biotin)
T2 construct: also called PE9411; N-ter PE9413
T2 peptide: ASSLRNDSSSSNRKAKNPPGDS

B1: parental humanized 5H10 VK3/VH1 scFv (VH-linker-VL-SV5tag) displayed on yeast (scFv, V domains shown)
VH: QVQLVQSGAELKKPGSSVKISCKSSGYAFSSYWMNWVKQRPGQGLEWIGQIYPGDGDTHYNGKFKGKATLTADKSTSTAYMELSSLTSEDSAVYFCSSSNWVGSYWGQGTLVTVSS
VL: DVVMTQSPLSLPVTLGQPASISCKSSQSLLESDGKTYLNWLQQRPGQSPRRLIYLVSRLDSGVPDRFSGSGSGTDFTLKISRVEAEDVGVYYCWQGTHLPQTFGGGTKVEIK
notes: also called parental scFv; parental antibody; not shown: linker; SV5 tag
B2: H74P scFv displayed on yeast (scFv, V domains shown)
VH: B1 VH with Y32Q, G54E
VL: B1 VL with S32E, K35N, S57D, S61L, T97S
notes: Aga2-anchored, VH-VL orientation; not shown: linker; SV5 tag
B3: B114P scFv displayed on yeast (scFv, V domains shown)
VH: B1 VH with Y32Q, G54E, Y60M, V102D
VL: B1 VL with S32E, K35N, S57D, H98D
notes: as for B2
B4: H83P scFv displayed on yeast (scFv, V domains shown)
VH: B1 VH with Y32Q, T58I, G62D
VL: B1 VL with K35N, S57D, H98D
notes: as for B2
B5: A64P scFv displayed on yeast (scFv, V domains shown)
VH: B1 VH with Y32N, G54E
VL: B1 VL with S32E, K35N, S57N, S61D, H98D
notes: as for B2
B6: A84P scFv displayed on yeast (scFv, V domains shown)
VH: B1 VH with Y32Q, G54E, Y60M
VL: B1 VL with S32E, K35N, S57D, S61I, H98D
notes: as for B2
B7: B124P scFv displayed on yeast (scFv, V domains shown)
VH: B1 VH with Y32N, G54E, G62D
VL: B1 VL with S32Q, K35N, S57D, H98D
notes: as for B2
B8: A104P scFv displayed on yeast (scFv, V domains shown)
VH: B1 VH with Y32Q, G54E
VL: B1 VL with S32E, K35N, S57D, H98D
notes: as for B2
B9: B104P scFv displayed on yeast (scFv, V domains shown)
VH: B1 VH with Y32Q, G54D, G62D
VL: B1 VL with S32A, K35N, S57D, H98D
notes: as for B2
B10: D14P scFv displayed on yeast (scFv, V domains shown)
VH: B1 VH with Y32Q, G56D, G62D
VL: B1 VL with K35N, S57D, S61L, H98D
notes: as for B2
B11: D44P scFv displayed on yeast (scFv, V domains shown)
VH: B1 VH with Y32Q, G54E, T58I
VL: B1 VL with S32E, K35N, S57D, T97S
notes: as for B2
B12: F54P scFv displayed on yeast (scFv, V domains shown)
VH: B1 VH with Y32Q, G54E, Y60M, G66T
VL: B1 VL with S32E, K35N, S57D, H98D
notes: as for B2

Molecular target: T1, PE9413, C-terminal biotinylated peptide …
Assay: yeast-displayed scFv, flow cytometry titration of biotinylated peptide

Kd	Binder
174 nM	B1

Molecular target: T2, N-terminal biotinylated PE9413
Assay: yeast-displayed scFv, flow cytometry titration of N-terminal biotinylated peptide
Experimental: The affinity of the 12 best clones for the N-terminal biotinylated target peptide […] was also evaluated. Each clone was incubated with increasing amounts of N-terminal biotinylated PE9413, and stained with a fluorescently labeled anti-streptavidin antibody. Binding of the clone to N-terminal biotinylated PE9413 was analyzed by flow cytometry. A plot of concentration of PE9413 versus the median fluorescent signal of the yeast cell population that bound to PE9413 was used to estimate the binding affinity (KD) of each clone to N-terminal biotinylated PE9413. The tested clones were confirmed to have improved affinities over the parental antibody 5H10 against the target sequence PE9413, regardless of the biotinylation modification, as reported in Table A3 and FIG. 12.

Kd	Binder
4.9 nM	B2
7.14 nM	B3
5.3 nM	B4
5.23 nM	B5
3.93 nM	B6
5 nM	B7
5.85 nM	B8
6.38 nM	B9
5.38 nM	B10
4.61 nM	B11
5.66 nM	B12

Molecular target: T1, PE9413, C-terminal biotinylated peptide …
Assay: yeast-displayed scFv, flow cytometry titration of biotinylated peptide
Remark: another data set of the same source
Experimental: (§1) The binding of the selected 48 clones described above to 170 nM of C-terminal biotinylated PE9413 was evaluated. The 24 clones with the highest binding signal were further evaluated for binding affinity. Each clone was incubated with increasing amounts of biotinylated PE9413, and stained with a fluorescently labeled anti-streptavidin antibody. Binding of the clone to PE9413 was analyzed by flow cytometry. A plot of concentration of PE9413 versus the median fluorescent signal of the yeast cell population that bound to PE9413 was used to estimate the binding affinity (KD) of each clone to C-terminal biotinylated PE9413.

Kd	Binder
3.84 nM	B2
3.63 nM	B3
4.08 nM	B4
3.29 nM	B5
2.52 nM	B6
3.82 nM	B7
3.64 nM	B8
4.52 nM	B9
4.39 nM	B10
4.18 nM	B11
4.09 nM	B12

Molecular target: T1, PE9413, C-terminal biotinylated peptide …
Assay: yeast-displayed scFv, flow cytometry titration of biotinylated peptide (FIG. 16D)
Experimental: Yeast display methods were conducted as described by Ferrara et al. Briefly, cells were induced in induction media overnight at 20° C. 10⁵ induced cells were washed twice with wash buffer (PBS supplemented with 0.5% BSA) and incubated at room temperature with the biotinylated antigen diluted in PBS. To assess binding of the scFv, a C-terminal biotinylated peptide mapping on Exon6 of the SCF molecule was used (referred to herein as “PE9413”). […] The induced yeast population was stained with biotinylated PE9413 at different concentrations ranging from 50 nM to 2 μM (0 nM, 50 nM, 100 nM, 250 nM, 500 nM, 750 nM, 1000 nM, or 2000 nM). Volumes and incubation times were carefully adjusted according to parameters described in [3]. After the incubation with the target peptide, the yeast cells were washed twice with cold wash buffer and subsequently incubated at 4° C. for an additional 30 minutes with fluorescently labelled streptavidin (Streptavidin-AlexaFlu633), to detect binding of the biotinylated PE9413, and with the labelled anti-SV5 (anti-SV5-PE), to detect the scFv display levels on yeast cells. Following 2 washes with cold yeast wash buffer, the cells were resuspended in cold PBS and analyzed in the flow cytometer (FIG. 1).
The FACS sorted population was sorted kinetically to find clones with an improved Koff compared to the parenteral scFv. […]

Kd	Binder
232 nM	B1

Molecular target: T1, PE9413, C-terminal biotinylated peptide …
Assay: yeast-displayed scFv, flow cytometry titration of biotinylated peptide
Remark: another data set of the same source
Experimental: as §1, with “PE9413. […]” for “PE9413.”

Kd	Binder
3.84 nM	B2
3.63 nM	B3
4.08 nM	B4
3.29 nM	B5
2.52 nM	B6
3.82 nM	B7
3.64 nM	B8
4.52 nM	B9
4.39 nM	B10
4.18 nM	B11
4.09 nM	B12
